Laboratory results as given in article PMC5486021, “Biochemical and Computational Insights on a Novel Acid-Resistant and Thermal-Stable Glucose 1-Dehydrogenase” (International Journal of Molecular Sciences, 2017).
One block for each molecule: values may come before it.

Legend:
[1] = biological target: T1, BzGDH (Bacillus sp. (in: firmicutes), UniProt A0A068FPP9); assay: NADH absorbance at […] nm, nonlinear Michaelis-Menten fit; assay type: biochemical, Bacillus sp. ZJ; conditions: 100 mM sodium phosphate pH 8.0, 25 °C; 1 mM NAD; glucose 1-200 mM; kcat per subunit
T1 construct: full length, 261 residues (28 kDa predicted, 30 kDa SDS-PAGE, 120 kDa native), pET28a (NdeI/BamHI) in E. coli BL21(DE3), Ni-NTA purified, His tag removal not mentioned; N-terminus from primer MYSDLA

[2] = test system: T2, NC(=O)c1ccc[n+]([C@@H]2O[C@H](COP(=O)(O)OP(=O)(O)OC[C@H]3O[C@@H](n4cnc5c(N)ncnc54)[C@H](O)[C@@H]3O)[C@@H](O)[C@H]2O)c1; assay: purified protein; assay type: biochemical, Bacillus sp. ZJ; conditions: 100 mM sodium phosphate pH 8.0, 25 °C, glucose given as 200 µM (standard assay 200 mM), NAD 0.01-0.2 mM, kcat per subunit, varied: cofactor
T2 construct: full length, 261 residues (28 kDa predicted, 30 kDa SDS-PAGE, 120 kDa native), pET28a (NdeI/BamHI) in E. coli BL21(DE3), Ni-NTA purified, His tag removal not mentioned; N-terminus from primer MYSDLA

[3] = test system: T3, NC(=O)c1ccc[n+]([C@@H]2O[C@H](COP(=O)(O)OP(=O)(O)OC[C@H]3O[C@@H](n4cnc5c(N)ncnc54)[C@H](OP(=O)(O)O)[C@@H]3O)[C@@H](O)[C@H]2O)c1; assay: purified protein; assay type: biochemical, Bacillus sp. ZJ; conditions: 100 mM sodium phosphate pH 8.0, 25 °C, glucose given as 200 µM (standard assay 200 mM), NADP 0.01-0.2 mM, kcat per subunit, varied: cofactor
T3 construct: full length, 261 residues (28 kDa predicted, 30 kDa SDS-PAGE, 120 kDa native), pET28a (NdeI/BamHI) in E. coli BL21(DE3), Ni-NTA purified, His tag removal not mentioned; N-terminus from primer MYSDLA

[4] = biological target: NAD(P)-dependent glucose 1-dehydrogenase from Bacillus sp. ZJ (Bacillus sp. ZJ); assay: SEC; gel filtration on a Zorbax Bio-series GF-450 column; standards lysozyme (14.3 kDa), chicken ovalbumin (45 kDa), bovine serum albumin fraction V (67 kDa), goat IgG (150 kDa); native mass estimated 120 kDa against 30 kDa on SDS-PAGE

Km [1]: 17.1 ± 0.946 mM
Molecule: OC[C@H]1OC(O)[C@H](O)[C@@H](O)[C@@H]1O (stereo partly drawn) [D-glucose]

Molecule: BzGDH (Bacillus sp. (in: firmicutes))
Km [2]: 0.072 ± 0.009 mM
kcat [2]: 84.5 ± 2.17 s⁻¹
kcat/Km [2]: 1.17e+06 M⁻¹ s⁻¹
Km [3]: 0.404 ± 0.088 mM
kcat [3]: 74 ± 2.68 s⁻¹
kcat/Km [3]: 183000 M⁻¹ s⁻¹

stoichiometry N [4]: 4
Molecule: NAD(P)-dependent glucose 1-dehydrogenase from Bacillus sp. ZJ (enzyme)
